T1: extracellular domain of human IL10Rα (amino acids 22-235, UniProtKB Q13651) (human, UniProt Q13651 22-235)
T1 construct: range 22-235; Antigen used for camel immunization and for phage selection; also called hIL-10Rαecd; hIL10-R1
T1 sequence (looked up): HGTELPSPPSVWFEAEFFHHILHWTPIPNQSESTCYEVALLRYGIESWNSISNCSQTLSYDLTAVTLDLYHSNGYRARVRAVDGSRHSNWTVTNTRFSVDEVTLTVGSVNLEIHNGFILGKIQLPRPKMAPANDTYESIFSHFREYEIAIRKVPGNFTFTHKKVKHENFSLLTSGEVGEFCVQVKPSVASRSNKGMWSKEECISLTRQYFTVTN

T2: extracellular domain of human IL10Rβ (amino acids 20-220, UniProtKB Q08334) (human, UniProt Q08334 20-220)
T2 construct: range 20-220; Antigen used for camel immunization and for phage selection; also called hIL-10Rβecd; hIL10-R2
T2 sequence (looked up): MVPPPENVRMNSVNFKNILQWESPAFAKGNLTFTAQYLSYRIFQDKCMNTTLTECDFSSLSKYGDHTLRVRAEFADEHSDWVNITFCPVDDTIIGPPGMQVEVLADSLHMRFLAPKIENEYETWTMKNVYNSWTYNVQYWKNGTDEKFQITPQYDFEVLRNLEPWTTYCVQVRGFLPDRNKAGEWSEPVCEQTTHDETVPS

B1: anti-hIL-10Rαecd VHH SEQ ID NO 44 (VHH)
VHH: QVQLQESGGGSVQAGGSLRLSCAASRYLYSIDYMAWFRQSPGKEREPVAVIYTASGATFYPDSVKGRFTISQDNAKMTVYLQMNSLKSEDTAMYYCAAVRKTDSYLFDAQSFTYWGQGTQVTVSS
notes: Camel VHH selected by phage display; also called Anti-IL10Rα
B2: anti-hIL-10Rβecd VHH SEQ ID NO 56 (VHH)
VHH: QVQLQESGGGSVQAGGSLRLSCAASGYSYSSYCMGWFRQAPGKEREGVATIDSDGMTRYADSVKGRFTISKDNAKNTLYLQMNSLKPEDTAMYYCAAPLYDCDSGAVGRNPPYWGQGTQVTVSS
notes: Camel VHH selected by phage display; also called Anti-IL10Rβ
B3: anti-hIL-10Rβecd VHH SEQ ID NO 57 (VHH)
VHH: QVQLQESGGGSVQTGGSLRLSCAASGYTYLRGCMGWFRQAPGKEREGVAVMDVVGDRRSYIDSVKGRFTISRDNAANSVYLQMDNLKPEDTAMYYCTAGPNCVGWRSGLDYWGQGTQVTVSS
notes: as for B2
B4: anti-hIL-10Rαecd VHH SEQ ID NO 45 (VHH)
VHH: QVQLQESGGGSVQAGGSLRLSCAASRFTYSSYCMGWFRQAPGKEREGVASIDSDGSTSYTDSVKGRFTISKDNAKNTLYLQMNSLKPEDTAMYYCALDLMSTVVPGFCGFLLSAGMDYWGKGTQVTVSS
notes: as for B1
B5: anti-hIL-10Rαecd VHH SEQ ID NO 46 (VHH)
VHH: QVQLQESGGGSVQAGGSLRLSCAASGYTYSMYCMGWFRQAPGKEREGVAQINSDGSTSYADSVKGRFTISKDNAKNTLYLQMNSLKPEDTAMYYCAADSRVYGGSWYERLCGPYTYEYNYWGQGTQVTVSS
notes: as for B1
B6: anti-hIL-10Rαecd VHH SEQ ID NO 47 (VHH)
VHH: QVQLQESGGGSVQAGGSLRLSCAVSGYAYSTYCMGWFRQAPGKEREGVAAIDSGGSTSYADSVKGRFTISKDNAKNTLYLRMNSLKPEDTAMYYCAAVPPPPDGGSCLFLGPEIKVSKADFRYWGQGTQVTVSS
notes: as for B1
B7: anti-hIL-10Rαecd VHH SEQ ID NO 48 (VHH)
VHH: QVQLQESGGGSVQAGGSLRLSCTVSGYTYSSNCMGWFRQAPGKEREGVATIYTGGGNTYYADSVKGRFTISQDNAKNTVYLQMNNLKPEDTAMYYCAAEPLSRVYGGSCPTPTFDYWGQGTQVTVSS
notes: as for B1
B8: anti-hIL-10Rαecd VHH SEQ ID NO 49 (VHH)
VHH: QVQLQESGGGSVQAGGSLRLSCGASGYTYSSYCMGWFRQVPGKEREGVAVIDSDGSTSYADSVKGRFTISKDNGKNTLYLQMNSLKPEDTAMYYCAADLGHYRPPCGVLYLGMDYWGKGTQVTVSS
notes: as for B1
B9: anti-hIL-10Rαecd VHH SEQ ID NO 50 (VHH)
VHH: QVQLQESGGGSVQAGGSLRLSCAASGYSNCSYDMTWYRQAPGKEREFVSAIHSDGSTRYADSVKGRFFISQDNAKNTVYLQMNSLKPEDTAMYYCKTDPLHCRAHGGSWYSVRANYWGQGTQVTVSS
notes: as for B1
B10: anti-hIL-10Rβecd VHH SEQ ID NO 52 (VHH)
VHH: QVQLQESGGGSVQAGGSLRLSCAASGYTYSSYCMGWFRQAPGKEREGVAHIDSDGSTSYADSVKGRFTISKDNAKNTLYLQMNSLKPEDTAMYYCAADPIPGPGYCDGGPNKYWGQGTQVTVSS
notes: as for B2

Experiments:
[1] = target: T1, extracellular domain of human IL10Rα …; experiment: phage display biopanning on the antigen, positive colonies by PE-ELISA
Protocol: (§1) Library biopanning was conducted to screen candidates against the antigens after library construction. Phage display technology was applied in this procedure. Positive colonies were identified by PE-ELISA.
(§2) Camels were immunized with the extracellular domains of the human IL10Rα (amino acids 22-235, UniProtKB Q13651, hIL-10Rαecd) and IL10Rβ (amino acids 20-220, UniProtKB Q08334, hIL-10Rβecd) weekly for seven weeks and PBMCs harvested on day 52. Phage display libraries were constructed and biopanning conducted as described in Example 1 above. 50 VHH sequences were obtained after selection on hIL10-R1 and 47 VHH sequences were obtained after selection on hIL10-R2. Sequences were clonotyped using germline assignment and CDR3 sequence similarity.

[2] = target: T2, extracellular domain of human IL10Rβ …; experiment: as above
Protocol: as §1, §2

Row | Binder | binding result [1] | binding result [2]
1 | B1 | binds | 
2 | B2 |  | binds
3 | B3 |  | binds
4 | B4 | binds | 
5 | B5 | binds | 
6 | B6 | binds | 
7 | B7 | binds | 
8 | B8 | binds | 
9 | B9 | binds | 
10 | B10 |  | binds

Reference: patent publication US20250376528A1 (SYNTHEKINE, published 2025)
